Patent publication US8227212B2, “Cell that expresses a sulfatase and a formylglycine generating enzyme” (Shire Human Genetic Therapies, Inc., priority 2003, dated 2012)
Where two headings read alike, the source gives them in different places. Each block holds one substance with its values, some of them ahead of it.

Key:
FGE [1] = target: T1, FGE (Bos taurus, UniProt Q0P5L5); test: Affinity matrices: Affigel 10 derivatized with 16mer peptides, binding of FGE; set-up: species or system bovine
T1 construct: the soluble fraction (reticuloplasm) of bovine testis microsomes served as the starting material; from tissue; host or cells: bovine testis rough microsomes, reticuloplasm
T1 sequence (Q0P5L5 34-374): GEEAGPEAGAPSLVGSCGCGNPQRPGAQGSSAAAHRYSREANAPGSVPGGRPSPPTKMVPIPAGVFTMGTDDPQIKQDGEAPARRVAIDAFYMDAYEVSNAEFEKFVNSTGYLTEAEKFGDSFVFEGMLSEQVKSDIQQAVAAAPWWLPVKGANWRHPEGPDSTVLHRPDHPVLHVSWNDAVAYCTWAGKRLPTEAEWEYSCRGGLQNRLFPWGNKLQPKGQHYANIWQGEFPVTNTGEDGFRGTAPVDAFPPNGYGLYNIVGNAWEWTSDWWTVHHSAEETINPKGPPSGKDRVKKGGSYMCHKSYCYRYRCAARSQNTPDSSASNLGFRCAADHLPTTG
Procedure: Bovine testes were obtained from the local slaughter house and stored for up to 20 h on ice. The parenchyme was freed from connective tissue and homogenized in a waring blendor and by three rounds of motor pottering. Preparation of rough microsomes (RM) by cell fractionation of the obtained homogenate was performed as described (Meyer et al., J. Biol. Chem., 2000, 275:14550-14557) with the following modifications. Three differential centrifugation steps, 20 minutes each at 4° C., were performed at 500 g (JA10 rotor), 3000 g (JA10) and 10000 g (JA20). From the last supernatant the RM membranes were sedimented (125000 g, Ti45 rotor, 45 min, 4° C.), homogenized by motor pottering and layered on a sucrose cushion (50 mM Hepes, pH 7.6, 50 mM KAc, 6 mM MgAc2, 1 mM EDTA, 1.3 M sucrose, 5 mM β-mercaptoethanol). RMs were recovered from the pellet after spinning for 210 minutes at 45000 rpm in a Ti45 rotor at 4° C. Usually 100000-150000 equivalents RM, as defined by Walter and Blobel (Methods Enzymol.,1983, 96:84-93), were obtained from 1 kg of testis tissue. The reticuloplasm, i.e. the luminal content of the RM, was obtained by differential extraction at low concentrations of deoxy Big Chap, as described (Fey et al., J. Biol. Chem., 2001, 276:47021-47028). For FGE purification, 95 ml of reticuloplasm were dialyzed for 20 h at 4° C. against 20 mM Tris/HCl, pH 8.0, 2.5 mM DTT, and cleared by centrifugation at 125000 g for 1 h. 32 ml-aliquots of the cleared reticuloplasm were loaded on a MonoQ HR10/10 column (Amersham Biosciences, Piscataway, N.J.) at room temperature, washed and eluted at 2 ml/min with a linear gradient of 0 to 0.75 M NaCl in 80 ml of the Tris buffer. […] An aliqout of the eluate was substituted with 1 mg/ml bovine serum albumin, dialyzed against buffer A and analyzed for activity. […] The polypeptide composition of the starting material and preparations obtained after the chromatographic steps were monitored by SDSPAGE (15% acrylamide, 0.16% bisacrylamide) and staining with SYPRO Ruby (Bio-Rad Laboratories). […]

FGE [2] = target: T1, FGE; test: In vitro FGE activity assay with [35S] ASA fragments (ribosome-associated nascent chain complexes) as substrate; type: biochemical, bovine
Procedure: We had developed an assay for determining FGE activity in microsome extracts using in vitro synthesized [^35S] ASA fragments as substrate. The fragments were added to the assay mixture as ribosome-associated nascent chain complexes. The quantitation of the product included tryptic digestion, separation of the peptides by RP-HPLC and identification and quantitation of the [^35S]-labeled FGly containing tryptic peptide by a combination of chemical derivatization to hydrazones, RP-HPLC separation and liquid scintillation counting (Fey et al., J. Biol. Chem., 2001, 276:47021-47028). For monitoring the enzyme activity during purification, this cumbersome procedure needed to be modified. […] We synthesized the 23mer peptide P23 (SEQ ID NO:33), which corresponds to ASA residues 60-80 with an additional N-acetylated methionine and a C-amidated serine residue to protect the N- and C-terminus, respectively. The cysteine and the FGly containing forms of P23 could be identified and quantified by matrix-assisted laser desorption/ionisation time of flight (MALDI-TOF) mass spectrometry. The presence of the FGly residue in position 11 of P23 was verified by MALDI-TOF post source decay mass spectrometry (see Peng et al., J. Mass Spec., 2003, 38:80-86). […]

ARSA, ARSC and ARSE = test: Co-expression of FGE (SUMF1) and sulfatase cDNAs in cell lines, sulfatase activities; type: cell-based, human; conditions: co-transfection with ARSA, ARSC and ARSE cDNAs in various cell lines
Source text: To test the effect of FGE (SUMF1) on additional sulfatase activities in normal cells we overexpressed ARSA (SEQ ID NO:14), ARSC (SEQ ID NO:18) and ARSE (SEQ ID NO:22) cDNAs in various cell lines with and without co-transfection of the FGE (SUMF1) cDNA and measured sulfatase activities.
To test for functional conservation of the FGE (SUMF1) gene during evolution we overexpressed ARSA, ARSC and ARSE cDNAs in various cell lines with and without co-transfection of the […] and measured sulfatase activities.

FGE [3] = target: T1, FGE; test: In vitro assay for FGE with peptide P23 as substrate (MALDI-TOF); type: biochemical; conditions: incubation with extracts from microsomes of bovine pancreas or bovine testis
Procedure: For monitoring the activity of FGE, the N-acetylated and C-amidated 23mer peptide P23 ([…]) (SEQ ID NO:33) was used as substrate. The conversion of the Cysteine residue in position 11 to FGly was monitored by MALDI-TOF mass spectrometry. A 6 μM stock solution of P23 in 30% acetonitrile and 0.1% trifluoroacetic acid (TFA) was prepared. Under standard conditions 6 pmol of P23 were incubated at 37° C. with up to 10 μl enzyme in a final volume of 30 μl 50 mM Tris/HCl, pH 9.0, containing 67 mM NaCl, 15 μM CaCl2, 2 mM DTT, and 0.33 mg/ml bovine serum albumin. To stop the enzyme reaction 1.5 μl 10% TFA were added. […] Activity (pmol product/h) was calculated on the basis of the peak height of the product divided by the sum of the peak heights of P23 and the product.
We had developed an assay for determining FGE activity in microsome extracts using in vitro synthesized [^35S] […] The quantitation of the product included tryptic digestion, separation of the peptides by RP-HPLC and identification and quantitation of the [^35S]-labeled FGly containing tryptic peptide by a combination of chemical derivatization to hydrazones, RP-HPLC separation and liquid scintillation counting (Fey et al., J. Biol. Chem., 2001, 276:47021-47028). […] The cysteine and the FGly containing forms of P23 could be identified and quantified by matrix-assisted laser desorption/ionisation time of flight (MALDI-TOF) mass spectrometry. […]

Substance: Ser69 peptide: variant of ASA65-80 with Cys69 replaced by serine, PVSLSTPSRAALLTGR (SEQ ID NO:35) (a variant of the ASA65-80 peptide, in which the Cys69 was replaced by a Serine)
binding of FGE to peptide immobilized to Affigel 10 (FGE [1]): efficiently bound FGE

Substance: FGE2 (SUMF2): FGE gene paralog located on human chromosome 7 (SEQ ID NOs: 45, 46)
activity of FGE homologs on overexpressed human sulfatases (ARSA, ARSC and ARSE): much weaker

Substance: Ac-MTDFYVPVSLCTPSRAALLTGRS-NH2 [P23]
conversion of the peptide into a FGly containing derivative (FGE [3]): up to 95%

Other lines, results leading:

inhibition of FGE activity (FGE [2]; added at 10 mM concentration): did not inhibit FGE activity
binding of FGE to peptide immobilized to Affigel 10 (FGE [1]): did not retain FGE activity
Substance: scrambled peptide: variant of ASA65-80 with Cys69, Pro71 and Arg73 scrambled, PVSLPTRSCAALLTGR (SEQ ID NO:34) (a variant of the ASA65-80 peptide, in which residues Cys69, Pro71 and Arg73, critical for FGly formation, were scrambled)

inhibition of FGE activity (FGE [2]): inhibited the FGE activity
binding of FGE to peptide immobilized to Affigel 10 (FGE [1]): bound FGE efficiently
Substance: ASA65-80: synthetic 16mer peptide corresponding to ASA residues 65-80 containing the sequence motif required for FGly formation (PVSLCTPSRAALLTGR)
